Assay in all cases: GST pulldown, [35S]Met-labelled in vitro translated protein
The target in test [1] is T1, GST-HDA19 fusion protein (recombinant Arabidopsis thaliana HDA19 fused to glutathione S-transferase) (Arabidopsis thaliana, UniProt O22446 1-501).
T1 construct: Expressed in E. coli BL21-CodonPlus (DE3)-RP from pGEX-6P-2 (SalI/NotI) and purified under non-denaturing conditions; also called recombinant HDA19; not shown: glutathione S-transferase (GST) encoded by vector pGEX-6P-2 (Amersham Pharmacia)
T1 sequence (looked up): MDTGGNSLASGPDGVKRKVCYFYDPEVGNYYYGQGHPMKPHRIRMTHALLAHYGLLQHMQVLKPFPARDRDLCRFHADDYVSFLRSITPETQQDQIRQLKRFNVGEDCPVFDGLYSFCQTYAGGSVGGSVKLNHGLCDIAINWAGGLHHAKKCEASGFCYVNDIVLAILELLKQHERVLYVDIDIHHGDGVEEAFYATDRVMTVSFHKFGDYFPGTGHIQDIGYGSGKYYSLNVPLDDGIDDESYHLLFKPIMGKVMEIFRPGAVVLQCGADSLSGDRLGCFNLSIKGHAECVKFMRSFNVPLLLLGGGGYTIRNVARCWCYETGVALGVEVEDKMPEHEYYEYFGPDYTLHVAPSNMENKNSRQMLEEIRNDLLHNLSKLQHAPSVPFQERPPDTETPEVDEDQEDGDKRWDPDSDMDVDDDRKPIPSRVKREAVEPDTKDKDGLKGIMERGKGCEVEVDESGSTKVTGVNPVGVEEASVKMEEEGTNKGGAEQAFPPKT

Test [2] deals with T2, GST-Gcn5 fusion protein (recombinant Arabidopsis HAT Gcn5 fused to glutathione S-transferase) (Arabidopsis, UniProt Q9AR19 1-568).
T2 construct: Expressed in E. coli from pGEX-6P-2 (SalI/NotI); also called GCN5 (HAT); histone acetyltransferase (HAT); not shown: glutathione S-transferase (GST) encoded by vector pGEX-6P-2 (Amersham Pharmacia)
T2 sequence (looked up): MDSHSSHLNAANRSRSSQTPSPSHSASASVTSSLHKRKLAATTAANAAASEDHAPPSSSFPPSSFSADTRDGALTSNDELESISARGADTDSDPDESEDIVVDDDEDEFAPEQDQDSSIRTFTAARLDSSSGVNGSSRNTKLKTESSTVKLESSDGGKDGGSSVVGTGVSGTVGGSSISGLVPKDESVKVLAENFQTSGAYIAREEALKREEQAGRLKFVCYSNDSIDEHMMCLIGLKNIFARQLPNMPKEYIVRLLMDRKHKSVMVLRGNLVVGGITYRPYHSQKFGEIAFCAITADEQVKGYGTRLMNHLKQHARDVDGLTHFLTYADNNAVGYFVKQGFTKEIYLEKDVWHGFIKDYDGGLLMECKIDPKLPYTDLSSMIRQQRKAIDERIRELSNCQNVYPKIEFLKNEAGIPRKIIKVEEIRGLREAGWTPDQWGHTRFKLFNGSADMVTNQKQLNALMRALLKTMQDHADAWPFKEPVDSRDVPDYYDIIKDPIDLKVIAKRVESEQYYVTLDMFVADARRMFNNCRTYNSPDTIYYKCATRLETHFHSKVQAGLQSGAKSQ

Test [3] deals with T3, GST alone (negative control) (UniProt P08515 1-218 = GST).
T3 construct: Negative control in the GST pulldown assays (6 µg per reaction)
T3 sequence (P08515 whole entry): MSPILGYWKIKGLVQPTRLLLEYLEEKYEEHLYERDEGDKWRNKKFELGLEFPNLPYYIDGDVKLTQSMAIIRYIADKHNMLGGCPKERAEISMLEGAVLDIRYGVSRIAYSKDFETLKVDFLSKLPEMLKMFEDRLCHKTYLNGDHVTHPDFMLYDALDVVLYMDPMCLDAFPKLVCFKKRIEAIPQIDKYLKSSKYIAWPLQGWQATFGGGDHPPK

Experimental findings from patent US20050278809A1 (HER MAJESTY THE QUEEN IN RIGHT OF CANADA AS REPRESENTED BY …, published 2005) are described below.

B1: ΔBnSCL1^1-145, in vitro translated (other, not shown: small tags and cut ends)
chain: MDEHAMRSMDWDSIMKELEVDDDSAPYQLQPSSFNLPVFPDIDSSDVYPGPNQITGYGFNSLDSVDNGGFDYIEDLIRVVDCIESDELHLAHVVLSQLNQRLQTSAGRPLQRAAFYFKEALGSLLTGTNRNQLFSWSDIVQKIRA
modifications: labeled with [^35S]methionine
notes: C-terminal truncation lacking the VHIID motif
For the molecule B1, the binding result in test [1] was “no binding”.

B2: ΔbnKCP1^1-80 (residues 1-80), in vitro translated (other)
chain: MAGGGPTFSIELSAYGSDLPTDKASGDIPNEEGSGLSRVGSGIWSGRTVDYSSESSSSIGTPGDSEEEDEESEEDNDEEE
modifications: labeled with [^35S]methionine
notes: C-terminal truncation lacking the KID domain, translated in vitro from pET-28b; Vector-encoded residues are not described
As to B2, the binding result in test [2] and in test [1] was “no binding” each time.

B3: bnKCP1 (B. napus KID-containing protein 1), full-length, in vitro translated (other)
chain: MAGGGPTFSIELSAYGSDLPTDKASGDIPNEEGSGLSRVGSGIWSGRTVDYSSESSSSIGTPGDSEEEDEESEEDNDEEELGLASLRSLEDSLPSKGLSSHYKGKSKSFGNLGEIGSVKEVPKQENPLNKKRRLQIYNKLARKSFYSWQNPKSMPLLPVHEDNDDEEGDDGDLSDEERGGDVLARRPSFKNRALKSMSCFALSDLQEEEEEEEDE
modifications: labeled with [^35S]methionine
notes: Produced by TNT-Quick coupled in vitro transcription/translation from pET-28b (HindIII/XhoI); also called wild type bnKCP1; pET-28b bnKCP1
For the molecule B3, the binding result in test [3] was “no binding”.

B4: BnSCL1 (Brassica napus SCARECROW-like protein 1), full-length, in vitro translated (other, not shown: small tags and cut ends)
chain: MDEHAMRSMDWDSIMKELEVDDDSAPYQLQPSSFNLPVFPDIDSSDVYPGPNQITGYGFNSLDSVDNGGFDYIEDLIRVVDCIESDELHLAHVVLSQLNQRLQTSAGRPLQRAAFYFKEALGSLLTGTNRNQLFSWSDIVQKIRAIKEFSGISPIPLFSHFTANQAILDSLSSQSSSPFVHVVDFEIGFGGQYASLMREIAEKSANGGFLRVTAVVAEDCAVETRLVKENLTQFAAEMKIRFQIEFVLMKTFEILSFKAIRFVDGERTVVLISPAIFRRVIGIAEFVNNLGRVSPNVVVFVDSEGCTETAGSGSFRREFVSAFEFYTMVLESLDAAAPPGDLVKKIVETFLLRPKISAAVETAANRRSAGQMTWREMLCAAGMRPVQLSQFADFQAECLLEKAQVRGFHVAKRQGELVLCWHGRALVATSAWRF
modifications: labeled with [^35S]methionine
notes: also called wild type BnSCL1
On to B4, for which the binding result in test [3] is “no binding”.

B5: ΔbnKCP1^1-160 (residues 1-160), in vitro translated (other)
chain: MAGGGPTFSIELSAYGSDLPTDKASGDIPNEEGSGLSRVGSGIWSGRTVDYSSESSSSIGTPGDSEEEDEESEEDNDEEELGLASLRSLEDSLPSKGLSSHYKGKSKSFGNLGEIGSVKEVPKQENPLNKKRRLQIYNKLARKSFYSWQNPKSMPLLPVH
modifications: labeled with [^35S]methionine
notes: as for B2
Consider B5, for which the binding result in test [2] and in test [1] was “no binding” each time.
